# Measurements: PMC8721586, “Enzymatic Switching Between Archaeal DNA Polymerases Facilitates Abasic Site Bypass” (Frontiers in Microbiology, 2021)
# B1: Dpo2 (SisDpo2) (Saccharolobus islandicus REY15A) (protein)
# chain: MREMEEYVLDAYPVKGGVKLFLSNFKEKSIRTTFPVYAITDNPDVVLQHPEVKYYEEEKWKTLNGKEAKVYRFEVESFDAYYYMRKRLNVVNETPTVLSQTLYRLGIKPFRRLNSSDDEFPKVTIAKVVPLDWYGESLKGKVFEVKINNEVRRFYEKPEVEADITECLGEACNYVKSNVKIRIEKKRSPVSAKGLIEWSLISLTPLHEIAYATIGKVLTTNEAWVAFKRRIIIPKIVPRVEKLRRLENIMMADKGGLILFPQPGCYDNVYQVDFSSMYPSLIVKYNISAETVDACDDIKTELHSICLREKGIIPEALEWLIKRKSELKRIDKERAEAIKWILVASFGYLGYRNSLFGKIEAYEMVTYLARKTLRRTMEIAEEMGLKVLHSIIDSLVVKGDNIDKFIERVEKETGLRLDHKRYNWIIFTTTRNDTPYPTRYIANMNGEIIAKGLIRENMPNIVKSFLKDVLRGLSLTRTCSDVKKVRIRDLYEKYRKRTINGEPIDYVIWIKGVPYVRGIKGFYDARLGYMGRDVNYYINYLRRVYDNVEEVISRC
# notes: recombinant, expressed in native host S. islandicus E233S; purified as in Feng et al. 2021
# Substrate: Nc1nc2c(ncn2[C@H]2C[C@H](O)[C@@H](COP(=O)(O)OP(=O)(O)OP(=O)(O)O)O2)c(=O)[nH]1
# Assay: steady-state single-nucleotide incorporation, FAM-primer gel assay, Michaelis-Menten fit
# Assay type: biochemical, Saccharolobus islandicus
# Settings: pH 8.0 Tris-HCl, 40 mM KCl, 10 mM MgCl2, 11 nM enzyme, 100 nM primer-template (undamaged S0; also AP-site substrates D1-D8, L1-L8), apparent Km
protein,measurement,value
B1,Km,118 ± 22.7 µM
same,kcat,0.525 ± 0.125 s⁻¹
